From US20110020786A1, “PEPTIDE DENDRIMERS: AFFINITY REAGENTS FOR BINDING NOROVIRUSES” (BAYLOR COLLEGE OF MEDICINE, priority 2007, published 2011)
Ends that are not written are not given here.

Molecular target: NoVLPs (Norovirus-like particles) (so in the source)
Assay: SPR (BIAcore), NoVLPs immobilized, dendrimer injected at 8-240 µM, steady-state fit of the equilibrium average response

B1: …8 (the octovalent dendrimer of SEQ ID NO: 1) (peptide)
peptide: RHFQTHTVPLSL
modifications: also: octovalent MAP dendrimer, eight copies on branching lysine core
Kd: 117 µM
